Test results taken from IntAct's records for PubMed 17360477.

B1: Receptor-type tyrosine-protein phosphatase T (Homo sapiens), O14522-1 (parent)
chain: MASLAALALSLLLRLQLPPLPGARAQSAAGGCSFDEHYSNCGYSVALGTNGFTWEQINTWEKPMLDQAVPTGSFMMVNSSGRASGQKAHLLLPTLKENDTHCIDFHYYFSSRDRSSPGALNVYVKVNGGPQGNPVWNVSGVVTEGWVKAELAISTFWPHFYQVIFESVSLKGHPGYIAVDEVRVLAHPCRKAPHFLRLQNVEVNVGQNATFQCIAGGKWSQHDKLWLQQWNGRDTALMVTRVVNHRRFSATVSVADTAQRSVSKYRCVIRSDGGSGVSNYAELIVKEPPTPIAPPELLAVGATYLWIKPNANSIIGDGPIILKEVEYRTTTGTWAETHIVDSPNYKLWHLDPDVEYEIRVLLTRPGEGGTGPPGPPLTTRTKCADPVHGPQNVEIVDIRARQLTLQWEPFGYAVTRCHSYNLTVQYQYVFNQQQYEAEEVIQTSSHYTLRGLRPFMTIRLRLLLSNPEGRMESEELVVQTEEDVPGAVPLESIQGGPFEEKIYIQWKPPNETNGVITLYEINYKAVGSLDPSADLSSQRGKVFKLRNETHHLFVGLYPGTTYSFTIKASTAKGFGPPVTTRIATKISAPSMPEYDTDTPLNETDTTITVMLKPAQSRGAPVSVYQLVVKEERLQKSRRAADIIECFSVPVSYRNASSLDSLHYFAAELKPANLPVTQPFTVGDNKTYNGYWNPPLSPLKSYSIYFQALSKANGETKINCVRLATKAPMGSAQVTPGTPLCLLTTGASTQNSNTVEPEKQVDNTVKMAGVIAGLLMFIIILLGVMLTIKRRRNAYSYSYYLSQRKLAKKQKETQSGAQREMGPVASADKPTTKLSASRNDEGFSSSSQDVNGFTDGSRGELSQPTLTIQTHPYRTCDPVEMSYPRDQFQPAIRVADLLQHITQMKRGQGYGFKEEYEALPEGQTASWDTAKEDENRNKNRYGNIISYDHSRVRLLVLDGDPHSDYINANYIDGYHRPRHYIATQGPMQETVKDFWRMIWQENSASIVMVTNLVEVGRVKCVRYWPDDTEVYGDIKVTLIETEPLAEYVIRTFTVQKKGYHEIRELRLFHFTSWPDHGVPCYATGLLGFVRQVKFLNPPEAGPIVVHCSAGAGRTGCFIAIDTMLDMAENEGVVDIFNCVRELRAQRVNLVQTEEQYVFVHDAILEACLCGNTAIPVCEFRSLYYNISRLDPQTNSSQIKDEFQTLNIVTPRVRPEDCSIGLLPRNHDKNRSMDVLPLDRCLPFLISVDGESSNYINAALMDSHKQPAAFVVTQHPLPNTVADFWRLVFDYNCSSVVMLNEMDTAQFCMQYWPEKTSGCYGPIQVEFVSADIDEDIIHRIFRICNMARPQDGYRIVQHLQYIGWPAYRDTPPSKRSLLKVVRRLEKWQEQYDGREGRTVVHCLNGGGRSGTFCAICSVCEMIQQQNIIDVFHIVKTLRNNKSNMVETLEQYKFVYEVALEYLSSF

Variants of: B1
Conditions: with stat3_human STAT3, P40763
Chain of stat3_human STAT3, P40763 (P40763 whole entry): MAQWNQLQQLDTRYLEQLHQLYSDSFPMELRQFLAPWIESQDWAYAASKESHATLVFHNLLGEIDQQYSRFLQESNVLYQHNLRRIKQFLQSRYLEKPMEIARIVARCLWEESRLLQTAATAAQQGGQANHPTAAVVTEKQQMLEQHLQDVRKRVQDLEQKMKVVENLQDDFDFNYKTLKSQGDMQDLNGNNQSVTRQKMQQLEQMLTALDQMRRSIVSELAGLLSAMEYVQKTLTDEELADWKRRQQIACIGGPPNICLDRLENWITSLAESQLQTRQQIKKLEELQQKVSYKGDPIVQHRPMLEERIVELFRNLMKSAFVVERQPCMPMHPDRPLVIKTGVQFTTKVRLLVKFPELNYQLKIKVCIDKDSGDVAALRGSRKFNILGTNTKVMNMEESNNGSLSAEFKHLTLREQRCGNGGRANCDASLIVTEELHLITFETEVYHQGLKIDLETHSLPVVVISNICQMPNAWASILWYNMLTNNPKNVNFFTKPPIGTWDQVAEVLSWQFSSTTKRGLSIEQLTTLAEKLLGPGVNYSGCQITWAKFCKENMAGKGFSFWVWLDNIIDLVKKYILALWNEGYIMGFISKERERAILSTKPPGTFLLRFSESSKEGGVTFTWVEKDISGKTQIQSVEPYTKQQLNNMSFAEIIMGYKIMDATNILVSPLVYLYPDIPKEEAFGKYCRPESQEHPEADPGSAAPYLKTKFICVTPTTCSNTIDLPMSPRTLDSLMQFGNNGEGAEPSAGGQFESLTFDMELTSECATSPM

effect of a mutation on the interaction | Variant
increasing interaction strength | D1074A;C1106S
increasing interaction strength | D1074A
